Target: human FcγRIa expressed on transiently transfected CHO-S cells (human) (UniProt P12314)
Test: flow cytometry, CHO-S cells transiently expressing human FcγRIa, PE-conjugated goat anti-human IgG F(ab')2, % PE+ cells

Chain of human FcγRIa expressed on transiently transfected CHO-S cells (human) (P12314 16-374): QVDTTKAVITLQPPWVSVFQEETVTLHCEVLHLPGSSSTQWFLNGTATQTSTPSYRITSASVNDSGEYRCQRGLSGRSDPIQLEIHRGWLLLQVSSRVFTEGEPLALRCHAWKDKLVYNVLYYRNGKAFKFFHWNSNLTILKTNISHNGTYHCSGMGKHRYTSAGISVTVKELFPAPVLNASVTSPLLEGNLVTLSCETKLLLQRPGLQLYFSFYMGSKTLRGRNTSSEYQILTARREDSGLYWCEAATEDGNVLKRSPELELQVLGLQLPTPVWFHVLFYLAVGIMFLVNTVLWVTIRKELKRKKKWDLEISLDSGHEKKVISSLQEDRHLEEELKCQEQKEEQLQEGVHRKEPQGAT

EC50 (read off the curve): 0.2 µg/mL
Substance: nivolumab (antibody)

From patent publication US20240327544A1
